{"source": "patent US20240287489A1", "about": "“CHITINOLYTIC ENZYME-BASED PLANT PROTECTION AGENTS” (GLOBACHEM NV, priority 2021, published 2024)", "molecules": {"B1": {"name": "Chitinase 1: chitinolytic enzyme from P. orarium, SEQ ID NO: 1, recombinant with PelB signal peptide and 6×His tag; run 19 = 2 μM alone (protein, listed as Photobacterium orarium)", "chain": "MAAPGTPQIAWMETDYAIVEVDQAASAYKSLITVKPAAEVPVAWQRYSGETADLWKVKLNGNVVFEQSIAPASSGAGSTTLSVAQGGQYAMTVELCSGTGAAQACTSSAATNIVVADTDGSHLDPLPMNVDANNGNYTTPANTVVGAYFVEWGVYGRKFSVDNIPAQNLTHILYGFIPICGPNESLGEIENGNSLAALNRACQGTPDYEVVIHDPWAAVQMPQPQSGHTHSTPYKGTYGQMMALKQRYPDLKIVPSVGGWTLSDPFYSFTDKAKRDIFVASVKKFLKTWKFFDGVDIDWEFPGGKGANANLGDPVNDGPAYVALMRELRVMLDELEAETGRQYELTSAIGVGYDKIDVVNYADAVQYMDYIFAMTYDFFGGWNNVPGHQTALFCGSHMSADVCNGTGVDENGVPRQGPAYTAAHGIDRLLAQGVPANKLVLGTAMYARGWTGVTEASMTDPTNPMTGTGNGMVPGSWEPGVIDYKDVVTDYINNAAVTKGYDAQAEAPWAYNPSNGNLITYDDRRSVLAKGQYVRNLGLAGLFAWEIDADNGDILNAMQDSLAGGGGNYAPVAKAGADQVVNGAASVTLDGSASSDRDGQIVSYQWTQTSGPALTLTGSDTATATVAVPEVTADTQYAFTLTVTDNAGDTATDSVTVTAKAPGSNTAPVVAVSGPATASAGDTVVLDASQSSDADGDTLTFTWTVPAGVNATVNGATVSFVADSYTVDTPLNFTVAVSDGTDSVTESVTVTVLKDGGSTGCTNAWATGGVYNSGDIVTHSGKSWKAKWWTTGEEPGTTGEWGVWEDLGAANCQIE", "modifications": "PelB signal peptide; 6xHis tag; Chitinase 1", "notes": "run 19 = 2 μM alone"}}, "key": {"Fusarium culmorum [1]": {"tested_on": "Fusarium culmorum", "experiment": "Minimum inhibitory concentration (MIC) test on fungal pathogens", "assay_type": "cell-based", "description": "The start concentration of each chitinase used in minimum inhibitory concentration (MIC) tests was 100 μg/ml.\nThe chitinases were further tested for their protective activity in germination tests. Briefly, the following steps were conducted: • 1. Disinfection of wheat seeds in 10% bleach for 10 minutes in a biosafety cabinet • 2. Germination on filter paper • 3. Foliar application 3 dps (days post seeding) and 1 dbi (day before infection) • 4. 4 dps: add pathogen Fusarium culmorum • 5. Monitoring germination and plant health/phytotox"}, "D. melanogaster eggs": {"tested_on": "D. melanogaster eggs", "experiment": "Larvae survival after treatment of D. melanogaster eggs", "assay_type": "in vivo", "settings": "chitinase concentrations from 10% to 0.1%", "description": "The effects of chitinases on insects was tested on D. melanogaster eggs. Briefly, eggs were treated with chitinase 1 or a control, and larvae survival was assessed 3 days after treatment (DAT). Results for chitinase concentrations of concentration from 10% to 0.1% were as follows: […]"}, "[2]": {"experiment": "Chitinase mixture design, conversion rate of chitin powder (reducing end assay)", "assay_type": "biochemical", "settings": "2 μM Factor A", "description": "All five chitinases implemented in the DoE originated from a novel marine Photobacterium strain expressing these enzymes to carry out a conversion of crystalline chitin to monomeric and dimeric polysaccharides. All chitinases were produced recombinantly using E. coli BL21 (DE3) and characterized regarding optimum reaction conditions and product properties in Example 2. As so far only singular enzyme reactions were carried out, the DoE approach was used to 1) determine ideal enzyme combinations to maximize product rates 2) identify possible enzyme combinations to alter product distribution in terms of DP. […] The amount of released reducing sugars from the enzymatic degradation was quantified by the reducing end assay and used as a primary response.\nThe optimization function in Design Expert was used to model enzyme mixtures to maximize the overall conversion rate of chitin to oligomeric chitin mixtures. Three mixture solutions for maximized chitin (S1-83 Max) oligomer rates were tested and quantitative data was compared to the values predicted by the model. […]\nEnzymatic activity of recombinant chitinases was determined by carrying out a reducing end assay [J., H., Svein, E., and H., V. G., Carbohydr Polym, 2004. […] Samples were cooled down to room temperature and absorption was determined at 620 nm. […]"}, "[3]": {"experiment": "Substrate conversion yield from residue substrate after the reaction", "assay_type": "biochemical", "settings": "residue substrate after the reaction relative to the starting material", "description": "The overall substrate conversion yield was determined for all maximized solutions after determining the residue substrate after the reaction, relative to the starting material."}, "Fusarium culmorum [4]": {"tested_on": "Fusarium culmorum", "assay_type": "in vivo", "settings": "wheat, foliar application 3 dps, F. culmorum added 4 dps"}, "[5]": {"tested_on": "corn (maize), rice, barley", "experiment": "Protection of plants against abiotic stress (drought, flooding, salt, frost)", "assay_type": "in vivo, pear, cherry", "settings": "foliar and/or seed application", "excerpt": "FIGS. 18A-18E. Use of chitinase 1 as plant protection agent against abiotic stresses. Plant length (PL) FIG. 18A: after foliar application on corn in presence of drought or flooding stress; FIG. 18B: after foliar, seed or foliar+seed application on corn in presence of drought stress; FIG. 18C: after foliar application on rice in presence of salt stress; FIG. 18D: after foliar application on corn in presence of salt stress; FIG. 18E: after seed application on barley in presence of drought stress.\nFIGS. 19A-19B. Use of chitinase 1 as plant protection agent against abiotic stresses. Yield FIG. 19A: of pears after foliar application in presence of frost stress; FIG. 19B: of cherries after foliar application in presence of frost stress.\nChitinase 1 was tested for protective effects against abiotic stress. Abiotic stresses tested were drought, flooding, salt, or frost stress. Plants tested were: corn (maize), rice, barley, pear and […]. Test conditions were as follows:\n• plants are drilled in trays • germination at 25° C./15° C. (day/night) light 16 h, dark 8 h • application 10 days later • 2 days later replanted in pots of 8×8 cm • 3 possible regimes • no water • every day water with flooding system • continuous water\n• plants are drilled in trays • germination at 25° C./15° C. […]"}}, "data": [{"molecule": "B1", "values": [{"measurement": "inhibition of Fusarium culmorum in the MIC assay", "setting": "Fusarium culmorum [1]", "value": "showed inhibition"}, {"measurement": "% mortality", "setting": "D. melanogaster eggs; 3 days after treatment, control 25", "value": 36, "unit": "%"}, {"measurement": "% survival", "setting": "D. melanogaster eggs; larvae survival 3 days after treatment, control 75", "value": 64, "unit": "%"}, {"measurement": "conversion rate (highest of the design runs)", "setting": "[2]", "value": 502, "unit": "nmol/mL/h"}, {"measurement": "substrate conversion yield", "setting": "[3]", "value": "18.3±0.5", "unit": "%"}, {"measurement": "fungal growth in germination test", "setting": "Fusarium culmorum [4]", "value": "strong inhibition of fungal growth"}, {"measurement": "plant health in germination test", "setting": "Fusarium culmorum [4]; compared to the control", "value": "improved plant health"}, {"measurement": "protection from abiotic stress (plant length, fruit yield)", "setting": "[5]", "value": "protects the plants from different abiotic stresses"}]}]}
